Measurements taken from publication PMC6310021 (2018).

Target: Metallothionein-2 (UniProt P02795)
Assay: SPR

Sequence of Metallothionein-2 (P02795 whole entry): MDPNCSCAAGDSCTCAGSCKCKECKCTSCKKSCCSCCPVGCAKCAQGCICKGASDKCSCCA

- Kd: 110 nM
B1: Transgelin-2 (protein)
chain: ANRGPAYGLSREVQQKIEKQYDADLEQILIQWITTQCRKDVGRPQPGRENFQNWLKDGTVLCELINALYPEGQAPVKKIQASTMAFKQMEQISQFLQAAERYGINTTDIFQTVDLWEGKNMACVQRTLMNLGGLAVARDDGLFSGDPNWFPKKSKENPRNFSDNQLQEGKNVIGLQMGTNRGASQAGMTGYGMPRQIL
